Assay results from US20180289766A1 (HONG KONG BAPTIST UNIVERSITY, published 2018).
Positions of bridges follow the written chain, without caps; N, C: chain ends. No end group written: not given here.

What was measured:
Assay in all cases: cell-based or functional assay
[1] = target: T1, human galanin receptor 2 (hGalR2) (human, UniProt O43603 1-387)
T1 sequence (looked up): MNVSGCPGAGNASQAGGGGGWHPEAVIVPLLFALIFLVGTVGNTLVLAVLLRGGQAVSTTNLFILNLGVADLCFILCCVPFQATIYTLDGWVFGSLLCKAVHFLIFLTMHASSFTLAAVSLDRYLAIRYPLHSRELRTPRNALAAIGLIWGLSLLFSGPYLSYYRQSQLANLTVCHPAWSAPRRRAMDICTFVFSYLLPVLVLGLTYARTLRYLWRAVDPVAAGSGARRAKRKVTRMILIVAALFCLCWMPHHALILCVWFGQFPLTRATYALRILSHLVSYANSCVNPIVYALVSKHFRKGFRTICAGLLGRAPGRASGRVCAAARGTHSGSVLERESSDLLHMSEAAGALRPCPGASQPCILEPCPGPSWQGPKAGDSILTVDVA

[2] = target: T2, human galanin receptor 3 (hGalR3) (human, UniProt O60755 1-368)
T2 sequence (looked up): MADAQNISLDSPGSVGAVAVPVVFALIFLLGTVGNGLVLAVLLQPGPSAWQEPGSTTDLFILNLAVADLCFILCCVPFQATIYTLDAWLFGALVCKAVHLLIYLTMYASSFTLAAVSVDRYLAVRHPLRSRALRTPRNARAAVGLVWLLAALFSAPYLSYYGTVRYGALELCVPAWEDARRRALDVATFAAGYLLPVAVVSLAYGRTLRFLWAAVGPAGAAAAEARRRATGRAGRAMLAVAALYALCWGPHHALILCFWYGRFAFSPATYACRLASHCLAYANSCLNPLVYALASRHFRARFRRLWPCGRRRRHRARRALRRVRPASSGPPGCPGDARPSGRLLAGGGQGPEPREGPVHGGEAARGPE

[3] = target: T3, human galanin receptor 1 (hGalR1) (human, UniProt P47211 1-349)
T3 sequence (looked up): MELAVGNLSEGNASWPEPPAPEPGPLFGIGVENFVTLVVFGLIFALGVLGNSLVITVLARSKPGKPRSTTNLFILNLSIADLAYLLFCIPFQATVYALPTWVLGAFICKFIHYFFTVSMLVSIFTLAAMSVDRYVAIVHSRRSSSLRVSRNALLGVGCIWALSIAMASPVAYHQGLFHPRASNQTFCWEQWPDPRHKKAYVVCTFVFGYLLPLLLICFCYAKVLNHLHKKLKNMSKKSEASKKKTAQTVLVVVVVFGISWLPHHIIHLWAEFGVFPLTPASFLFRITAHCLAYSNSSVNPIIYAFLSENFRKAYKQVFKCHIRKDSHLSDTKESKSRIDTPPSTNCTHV

## NWTCQAMLYLKGAQ-NH2 [hSPX (C4)]
[1]
  EC50, receptor activation (SRE-Luc assay): 470 nM
  Emax, receptor activation (SRE-Luc assay): 0.98 relative to hSPX Emax
[2]
  EC50, receptor activation (SRE-Luc assay): 770 nM
  Emax, receptor activation (SRE-Luc assay): 0.91 relative to hSPX Emax

## GWTLNSAGYLLGPHAVGNHRSFSDKNGLTS-NH2 [human galanin (hGAL)]
[2]
  Emax, receptor activation (SRE-Luc assay): 0.68 relative to hSPX Emax

## NWTPQAMLYLKGCQ-NH2 [hSPX (C13)]
[1]
  EC50, receptor activation (SRE-Luc assay): 370 nM
  Emax, receptor activation (SRE-Luc assay): 0.87 relative to hSPX Emax
[2]
  EC50, receptor activation (SRE-Luc assay): 630 nM
  Emax, receptor activation (SRE-Luc assay): 0.88 relative to hSPX Emax

## GWTLNSAGYLLGPHAV-NH2 [human galanin (1-16), hGAL (1-16)]
[1]
  EC50, receptor activation (SRE-Luc assay): 220 nM
  Emax, receptor activation (SRE-Luc assay): 1.02 relative to hSPX Emax
[2]
  EC50, receptor activation (SRE-Luc assay): > 10000 nM
  Emax, receptor activation (SRE-Luc assay): 0.45 relative to hSPX Emax

## CWTPQAMLYLKGAQ-NH2 [hSPX (C1)]
[1]
  EC50, receptor activation (SRE-Luc assay): 510 nM
  Emax, receptor activation (SRE-Luc assay): 1.05 relative to hSPX Emax
[2]
  EC50, receptor activation (SRE-Luc assay): 360 nM
  Emax, receptor activation (SRE-Luc assay): 1 relative to hSPX Emax

B1: LH101 (peptide)
peptide: CWTPQAMLYLKGCQ-NH2
modifications: disulfide 1-13; N-terminus assumed
SMILES: CSCC[C@@H]1NC(=O)[C@H](C)NC(=O)[C@H](CCC(N)=O)NC(=O)[C@@H]2CCCN2C(=O)[C@H]([C@@H](C)O)NC(=O)[C@H](Cc2c[nH]c3ccccc23)NC(=O)[C@@H](N)CSSC[C@@H](C(=O)N[C@@H](CCC(N)=O)C(N)=O)NC(=O)CNC(=O)[C@H](CCCCN)NC(=O)[C@H](CC(C)C)NC(=O)[C@H](Cc2ccc(O)cc2)NC(=O)[C@H](CC(C)C)NC1=O
[1]
  EC50, receptor activation (SRE-Luc assay): 1190 nM
  Emax, receptor activation (SRE-Luc assay): 1.09 relative to hSPX Emax
[2]
  EC50, receptor activation (SRE-Luc assay): 1560 nM
  Emax, receptor activation (SRE-Luc assay): 1.04 relative to hSPX Emax

B2: LH101 (Ac) (peptide)
peptide: Ac-CWTPQAMLYLKGCQ-NH2
modifications: disulfide 1-13
SMILES: CSCC[C@@H]1NC(=O)[C@H](C)NC(=O)[C@H](CCC(N)=O)NC(=O)[C@@H]2CCCN2C(=O)[C@H]([C@@H](C)O)NC(=O)[C@H](Cc2c[nH]c3ccccc23)NC(=O)[C@@H](NC(C)=O)CSSC[C@@H](C(=O)N[C@@H](CCC(N)=O)C(N)=O)NC(=O)CNC(=O)[C@H](CCCCN)NC(=O)[C@H](CC(C)C)NC(=O)[C@H](Cc2ccc(O)cc2)NC(=O)[C@H](CC(C)C)NC1=O
[1]
  EC50, receptor activation (SRE-Luc assay): 380 nM
  Emax, receptor activation (SRE-Luc assay): 0.97 relative to hSPX Emax
[2]
  EC50, receptor activation (SRE-Luc assay): 390 nM
  Emax, receptor activation (SRE-Luc assay): 1 relative to hSPX Emax

B3: LH201 (peptide)
peptide: CWTLNSAGYLLGCHAV-NH2
modifications: disulfide 1-13; N-terminus assumed
SMILES: CC(C)C[C@@H]1NC(=O)[C@H](CC(C)C)NC(=O)[C@H](Cc2ccc(O)cc2)NC(=O)CNC(=O)[C@H](C)NC(=O)[C@H](CO)NC(=O)[C@H](CC(N)=O)NC(=O)[C@H](CC(C)C)NC(=O)[C@H]([C@@H](C)O)NC(=O)[C@H](Cc2c[nH]c3ccccc23)NC(=O)[C@@H](N)CSSC[C@@H](C(=O)N[C@@H](Cc2c[nH]cn2)C(=O)N[C@@H](C)C(=O)N[C@H](C(N)=O)C(C)C)NC(=O)CNC1=O
[3]
  EC50, receptor activation (SRE-Luc assay): > 10000 nM
  Emax, receptor activation (SRE-Luc assay): 0.35 relative to hGAL Emax
[1]
  EC50, receptor activation (SRE-Luc assay): 120 nM
  Emax, receptor activation (SRE-Luc assay): 1 relative to hSPX Emax
[2]
  EC50, receptor activation (SRE-Luc assay): > 10000 nM
  Emax, receptor activation (SRE-Luc assay): 0.55 relative to hSPX Emax

## Ac-CWTLNSAGYLLGCHAV-NH2 (disulfide 1-13) [LH201 (Ac)]
[3]
  Emax, receptor activation (SRE-Luc assay): 0.22 relative to hGAL Emax
[1]
  EC50, receptor activation (SRE-Luc assay): 480 nM
  Emax, receptor activation (SRE-Luc assay): 1.16 relative to hSPX Emax
[2]
  Emax, receptor activation (SRE-Luc assay): 0.2 relative to hSPX Emax

B4: LH102 (peptide)
peptide: NWTCQAMLYLKGCQ-NH2
modifications: disulfide 4-13; N-terminus assumed
SMILES: CSCC[C@@H]1NC(=O)[C@H](C)NC(=O)[C@H](CCC(N)=O)NC(=O)[C@@H](NC(=O)[C@@H](NC(=O)[C@H](Cc2c[nH]c3ccccc23)NC(=O)[C@@H](N)CC(N)=O)[C@@H](C)O)CSSC[C@@H](C(=O)N[C@@H](CCC(N)=O)C(N)=O)NC(=O)CNC(=O)[C@H](CCCCN)NC(=O)[C@H](CC(C)C)NC(=O)[C@H](Cc2ccc(O)cc2)NC(=O)[C@H](CC(C)C)NC1=O
[1]
  EC50, receptor activation (SRE-Luc assay): 1430 nM
  Emax, receptor activation (SRE-Luc assay): 1.08 relative to hSPX Emax
[2]
  EC50, receptor activation (SRE-Luc assay): 1500 nM
  Emax, receptor activation (SRE-Luc assay): 0.87 relative to hSPX Emax
